Experimental data reported in PMC5692602.

Target: ^15N-labeled intersectin 1-SH3A domain (UniProt Q15811)
Experiment: NMR titration

Sequence of UniProt Q15811 (Q15811 740-806): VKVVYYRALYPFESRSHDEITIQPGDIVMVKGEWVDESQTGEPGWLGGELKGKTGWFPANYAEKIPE

Substance	Kd [µM]
SH3A–B interdomain linker-derived peptide of intersectin 1, T832 and T839 phosphorylated	793
SH3A–B interdomain linker-derived peptide of intersectin 1, dephosphorylated	275
